Experimental data taken from US20240309080A1 (CHIA TAI TIANQING PHARMACEUTICAL GROUP, published 2024).
Numbering of substitutions follows the chain as printed. Where two headings read alike, the source gives them in different places.

Experiments:
Test in all cases: cell-based or functional assay
[1] = target: T1, recombinant human TSLP-his (human, UniProt Q969D9 29-159, biotin-labeled in the capture ELISA)
[2] = target: T1, recombinant human TSLP-his; remark: listed apart in the source
[3] = target: T1, recombinant human TSLP-his; remark: listed apart in the source
[4] = target: T1, recombinant human TSLP-his; remark: listed apart in the source
[5] = target: T1, recombinant human TSLP-his; remark: listed apart in the source
[6] = target: T1, recombinant human TSLP-his; remark: listed apart in the source

B1: hu1C5F12E9-V8 (IgG1) (antibody)
heavy: not shown
light: DIQMTQSPSSLSASVGDRVTITCRPTENIYSYLAWYQQKPGKAPKLLIYFARTLAEGVPSRFSGSGSGTDFTLTISSLQPEDFATYYCQHHYGTPWTFGGGTKVEIKRTVAAPSVFIFPPSDEQLKSGTASVVCLLNNFYPREAKVQWKVDNALQSGNSQESVTEQDSKDSTYSLSSTLTLSKADYEKHKVYACEVTHQGLSSPVTKSFNRGEC
IC50, TSLP-his dependent survival and proliferation of BAF3-3E6 cells expressing TSLPR/IL7R (RLU) [1]: 4.32 pM
IC50, STAT5-luciferase reporter in HEK293T-TSLPR/IL7R/STAT5-Luc cells stimulated with human TSLP-his (RLU) [2]: 0.0118 µg/mL

B2: hu1C5F12E9-V8 (IgG4) (antibody)
heavy: not shown
light: B1 light
IC50, TSLP-his dependent survival and proliferation of BAF3-3E6 cells expressing TSLPR/IL7R (Cell Titer-Glo, RLU) [3]: 1.68 pM
IC50, TSLP-his dependent survival and proliferation of BAF3-3E6 cells expressing TSLPR/IL7R (RLU) [1]: 14.7 pM
IC50, STAT5-luciferase reporter in HEK293T-TSLPR/IL7R/STAT5-Luc cells stimulated with human TSLP-his (RLU) [2]: ~0.0162 µg/mL

B3: hu1C5F12E9-V14 (IgG1) (antibody)
heavy: not shown
light: B1 light with A43S
IC50, TSLP-his dependent survival and proliferation of BAF3-3E6 cells expressing TSLPR/IL7R (RLU) [4]: 6.73 pM
IC50, STAT5-luciferase reporter in HEK293T-TSLPR/IL7R/STAT5-Luc cells stimulated with human TSLP-his (RLU) [5]: 0.022 µg/mL

B4: hu1C5F12E9-V14 (IgG4) (antibody)
heavy: not shown
light: B1 light with A43S
IC50, TSLP-his dependent survival and proliferation of BAF3-3E6 cells expressing TSLPR/IL7R (Cell Titer-Glo, RLU) [6]: 5.78 pM
IC50, TSLP-his dependent survival and proliferation of BAF3-3E6 cells expressing TSLPR/IL7R (RLU) [4]: 8.36 pM
IC50, STAT5-luciferase reporter in HEK293T-TSLPR/IL7R/STAT5-Luc cells stimulated with human TSLP-his (RLU) [5]: 0.025 µg/mL

B5: Chimeric 1C5F12E9 (antibody, V domains shown)
VH: QVQLQQPGTELVKPGASVKMSCKASGYTFTTYWMHWVKQRPGQGLEWIGVIDPSDSDTTYNQKFKGKATLTVDTSSSTAYMQLSSLTSEDSAVYYCTRSLDGYYDYWGQGTTLTVSS
VL: DIQMTQSPASLSASVGETVTITCRPTENIYSYLAWYQQKQGKSPHLLVYFARTLAEGVPSRFSGSGSGTQFSLKINSLQPEDFGIYYCQHHYGTPWTFGGGTKLEIK
IC50, TSLP-his dependent survival and proliferation of BAF3-3E6 cells expressing TSLPR/IL7R (Cell Titer-Glo, RLU) [3]: 0.521 pM
IC50, TSLP-his dependent survival and proliferation of BAF3-3E6 cells expressing TSLPR/IL7R (Cell Titer-Glo, RLU) [6]: 1.37 pM
